Results published in US20220298217A1 (FLAGSHIP PIONEERING INNOVATIONS VI, published 2022).

T1: PTHR1 on CHO-K1/Ga15/PTHR1 cells (UniProt Q03431 27-593, limits assumed)
T1 sequence (looked up): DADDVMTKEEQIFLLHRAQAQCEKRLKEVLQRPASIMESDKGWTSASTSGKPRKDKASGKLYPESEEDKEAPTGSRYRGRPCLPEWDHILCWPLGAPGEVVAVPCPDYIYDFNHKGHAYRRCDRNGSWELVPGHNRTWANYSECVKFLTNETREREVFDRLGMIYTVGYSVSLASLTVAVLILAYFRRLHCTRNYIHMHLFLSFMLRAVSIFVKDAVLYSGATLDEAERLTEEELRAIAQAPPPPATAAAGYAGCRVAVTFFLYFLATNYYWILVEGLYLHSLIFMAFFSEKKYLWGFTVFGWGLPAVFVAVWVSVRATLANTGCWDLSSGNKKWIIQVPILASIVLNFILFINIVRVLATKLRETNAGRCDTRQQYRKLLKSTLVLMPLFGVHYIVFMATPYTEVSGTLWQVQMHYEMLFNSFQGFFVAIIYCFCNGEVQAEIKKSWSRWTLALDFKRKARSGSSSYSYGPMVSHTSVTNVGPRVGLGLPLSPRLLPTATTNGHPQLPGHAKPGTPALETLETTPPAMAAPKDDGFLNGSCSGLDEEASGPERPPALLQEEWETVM

T2: Flag-PTHR1-YFP (UniProt Q03431 27-593)
T2 sequence (looked up): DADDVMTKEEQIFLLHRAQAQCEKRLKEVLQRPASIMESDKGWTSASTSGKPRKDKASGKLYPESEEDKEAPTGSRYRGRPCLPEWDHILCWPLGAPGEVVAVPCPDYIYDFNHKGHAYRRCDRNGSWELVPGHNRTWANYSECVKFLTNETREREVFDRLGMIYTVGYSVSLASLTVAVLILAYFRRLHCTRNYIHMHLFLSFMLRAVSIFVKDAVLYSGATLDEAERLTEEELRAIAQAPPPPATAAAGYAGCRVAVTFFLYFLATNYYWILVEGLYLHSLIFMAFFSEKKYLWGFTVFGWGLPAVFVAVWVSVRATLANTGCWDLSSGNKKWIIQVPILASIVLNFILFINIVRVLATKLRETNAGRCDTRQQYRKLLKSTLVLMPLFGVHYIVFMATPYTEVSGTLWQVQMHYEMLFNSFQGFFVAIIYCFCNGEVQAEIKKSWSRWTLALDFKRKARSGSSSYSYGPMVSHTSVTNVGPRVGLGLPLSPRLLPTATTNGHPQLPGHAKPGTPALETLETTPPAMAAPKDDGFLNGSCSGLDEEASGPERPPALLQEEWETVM


Legend:
Assay in all cases: cell-based or functional assay
[1] = biological target: Flag-PTHR1-YFP (parathyroid hormone receptor 1) expressed in transfected HEK293T cells (human) (UniProt Q03431)
[2] = biological target: T1, PTHR1 on CHO-K1/Ga15/PTHR1 cells
[3] = biological target: T2, Flag-PTHR1-YFP

arrestin 1, plate 25: -log10EC50 [1] | arrestin 1, plate 25: Emax [1] | arrestin 2, plate 26: -log10EC50 [1] | arrestin 2, plate 26: Emax [1] | cAMP accumulation (HTRF): -log10EC50 [2] | cAMP accumulation (HTRF): Emax [2] [%] | arrestin 2 recruitment (BRET): -log10EC50 [3] | arrestin 2 recruitment (BRET): Emax [3] | Molecule
-6.98 -log10EC50 | 7.68 | -7.33 -log10EC50 | 8.04 | – | – | – | – | PTH 7-36 antago (peptide)
– | – | – | – | -11.2 -log10EC50 (as headed) | 95.1 | -5.85 -log10EC50 (as headed) | 13.9 | AVAEIQLMHQRAKWDLLIELVKLLHELLKEYI [R2-40]
– | – | – | – | -10.5 -log10EC50 (as headed) | 309 | -8.03 -log10EC50 (as headed) | 7.45 | AVAEIQLMHQRAKWELQEIGIAITLRLLARYI [R2-43]
– | – | – | – | -9.09 -log10EC50 (as headed) | 96.4 | -5.86 -log10EC50 (as headed) | 17 | AVAEIQLMHQRAKWEIQEIGIKITLELLKEYI [R2-37]
– | – | – | – | -8.32 -log10EC50 (as headed) | 99 | -8.7 -log10EC50 (as headed) | 7.53 | AVAEIQLMHQRAKWKLELELKAFLDQILKDVL [R2-36]
– | – | – | – | -10.4 -log10EC50 (as headed) | 106 | -8.46 -log10EC50 (as headed) | 7.63 | AVAEIQLMHQRAKWSLREELEKLLKELLKEYI [R2-44]
– | – | – | – | -11.1 -log10EC50 (as headed) | 729 | -5.76 -log10EC50 (as headed) | 16.1 | AVAEIQLMHQRAKWGLEIELLKLLLSLLKEYI [R2-45]
– | – | – | – | -7.19 -log10EC50 (as headed) | 98.8 | -15.2 -log10EC50 (as headed) | 6.42 | AVAEIQLMHQRAKWKILEELLKILIDLLKQYI [R2-48]
– | – | – | – | -6.24 -log10EC50 (as headed) | 99.8 | -10.5 -log10EC50 (as headed) | 6.45 | GVAMLQIMHDLAKIKQELELKDSMKKILEDVL [R2-50]
– | – | – | – | -6.54 -log10EC50 (as headed) | 97.6 | -8.37 -log10EC50 (as headed) | 7.53 | AVAEIQLMHQRAKWAIQEIGIKITRELLERYL [R2-42]
– | – | – | – | -9.23 -log10EC50 (as headed) | 102 | -5.77 -log10EC50 (as headed) | 15.2 | AVAEIQLMHQRAKWDVLIELAKLLAELLRRYH [R2-47]
